Denaturant m value and unfolding free energy data for 1 protein are collected here from FireProtDB (doi:10.1021/bi050142b).

The conditions of this data set: Kitasatospora aureofaciens, 30 °C, GdnHCl, reversible: yes (>98%), whole UniProt chain shown.

B1: Guanyl-specific ribonuclease Sa wild type, P05798 (protein)
chain: DVSGTVCLSALPPEATDTLNLIASDGPFPYSQDGVVFQNRESVLPTQSYGYYHEYTVITPGARTRGTRRIITGEATQEDYYTGDHYATFSLIDQTC
B1: the denaturant m value reads like this: (pH 5.5, CD, None) 2.32 kcal/mol/M; (pH 5.9, CD, None) 2.3 kcal/mol/M. In addition, the unfolding free energy runs as follows: (pH 5.5, CD, None) 7.5 kcal/mol; (pH 5.5, NMR hydrogen exchange) 2.82 kcal/mol; (pH 5.9, CD, None) 6.7 kcal/mol.
